What all share (assay): G' assay (10 uM PL peptide), results of TABLE 7 and TABLE 12
Format in all cases: binding

Test [1] has as its target T1, PDZ protein (GST-PDZ fusion) (Homo sapiens, UniProt Q02410).
T1 construct: made in house; host or cells: E. coli (DH5alpha, BL21 or JM109)
T1 sequence (Q02410 1-837): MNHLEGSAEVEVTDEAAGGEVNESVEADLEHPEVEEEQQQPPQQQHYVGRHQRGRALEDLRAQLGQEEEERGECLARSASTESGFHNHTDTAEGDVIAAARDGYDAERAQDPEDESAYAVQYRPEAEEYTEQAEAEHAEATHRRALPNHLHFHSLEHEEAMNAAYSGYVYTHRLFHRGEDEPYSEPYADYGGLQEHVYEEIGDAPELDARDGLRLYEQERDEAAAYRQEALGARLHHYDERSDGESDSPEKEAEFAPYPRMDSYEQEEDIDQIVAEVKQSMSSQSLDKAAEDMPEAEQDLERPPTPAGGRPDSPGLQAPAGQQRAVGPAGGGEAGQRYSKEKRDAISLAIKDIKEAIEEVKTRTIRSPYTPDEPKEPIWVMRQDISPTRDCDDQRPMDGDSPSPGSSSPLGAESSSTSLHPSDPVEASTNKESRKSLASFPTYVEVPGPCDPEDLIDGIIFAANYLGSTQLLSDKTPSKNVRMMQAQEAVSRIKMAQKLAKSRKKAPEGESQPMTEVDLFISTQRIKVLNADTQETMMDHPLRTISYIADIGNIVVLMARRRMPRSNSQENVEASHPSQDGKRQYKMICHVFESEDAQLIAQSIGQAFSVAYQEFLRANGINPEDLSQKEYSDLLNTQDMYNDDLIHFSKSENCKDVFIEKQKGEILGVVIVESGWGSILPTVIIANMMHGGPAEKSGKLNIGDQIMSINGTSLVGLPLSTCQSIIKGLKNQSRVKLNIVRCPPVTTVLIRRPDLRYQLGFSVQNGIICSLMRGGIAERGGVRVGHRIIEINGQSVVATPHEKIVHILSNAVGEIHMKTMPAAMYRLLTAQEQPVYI
The gist of the method:
(§1)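 Binding classes derive from A450 nm of bound biotin-tagged PL peptide. A score of 5 needs A450 above 4 in more than two repeats.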

The target in test [2] is T2, PDZ protein (GST-PDZ fusion) (Homo sapiens, UniProt Q6P0Q8).
T2 construct: made in house; host or cells: E. coli (DH5alpha, BL21 or JM109)
T2 sequence (Q6P0Q8 whole entry, the tested form may be a part): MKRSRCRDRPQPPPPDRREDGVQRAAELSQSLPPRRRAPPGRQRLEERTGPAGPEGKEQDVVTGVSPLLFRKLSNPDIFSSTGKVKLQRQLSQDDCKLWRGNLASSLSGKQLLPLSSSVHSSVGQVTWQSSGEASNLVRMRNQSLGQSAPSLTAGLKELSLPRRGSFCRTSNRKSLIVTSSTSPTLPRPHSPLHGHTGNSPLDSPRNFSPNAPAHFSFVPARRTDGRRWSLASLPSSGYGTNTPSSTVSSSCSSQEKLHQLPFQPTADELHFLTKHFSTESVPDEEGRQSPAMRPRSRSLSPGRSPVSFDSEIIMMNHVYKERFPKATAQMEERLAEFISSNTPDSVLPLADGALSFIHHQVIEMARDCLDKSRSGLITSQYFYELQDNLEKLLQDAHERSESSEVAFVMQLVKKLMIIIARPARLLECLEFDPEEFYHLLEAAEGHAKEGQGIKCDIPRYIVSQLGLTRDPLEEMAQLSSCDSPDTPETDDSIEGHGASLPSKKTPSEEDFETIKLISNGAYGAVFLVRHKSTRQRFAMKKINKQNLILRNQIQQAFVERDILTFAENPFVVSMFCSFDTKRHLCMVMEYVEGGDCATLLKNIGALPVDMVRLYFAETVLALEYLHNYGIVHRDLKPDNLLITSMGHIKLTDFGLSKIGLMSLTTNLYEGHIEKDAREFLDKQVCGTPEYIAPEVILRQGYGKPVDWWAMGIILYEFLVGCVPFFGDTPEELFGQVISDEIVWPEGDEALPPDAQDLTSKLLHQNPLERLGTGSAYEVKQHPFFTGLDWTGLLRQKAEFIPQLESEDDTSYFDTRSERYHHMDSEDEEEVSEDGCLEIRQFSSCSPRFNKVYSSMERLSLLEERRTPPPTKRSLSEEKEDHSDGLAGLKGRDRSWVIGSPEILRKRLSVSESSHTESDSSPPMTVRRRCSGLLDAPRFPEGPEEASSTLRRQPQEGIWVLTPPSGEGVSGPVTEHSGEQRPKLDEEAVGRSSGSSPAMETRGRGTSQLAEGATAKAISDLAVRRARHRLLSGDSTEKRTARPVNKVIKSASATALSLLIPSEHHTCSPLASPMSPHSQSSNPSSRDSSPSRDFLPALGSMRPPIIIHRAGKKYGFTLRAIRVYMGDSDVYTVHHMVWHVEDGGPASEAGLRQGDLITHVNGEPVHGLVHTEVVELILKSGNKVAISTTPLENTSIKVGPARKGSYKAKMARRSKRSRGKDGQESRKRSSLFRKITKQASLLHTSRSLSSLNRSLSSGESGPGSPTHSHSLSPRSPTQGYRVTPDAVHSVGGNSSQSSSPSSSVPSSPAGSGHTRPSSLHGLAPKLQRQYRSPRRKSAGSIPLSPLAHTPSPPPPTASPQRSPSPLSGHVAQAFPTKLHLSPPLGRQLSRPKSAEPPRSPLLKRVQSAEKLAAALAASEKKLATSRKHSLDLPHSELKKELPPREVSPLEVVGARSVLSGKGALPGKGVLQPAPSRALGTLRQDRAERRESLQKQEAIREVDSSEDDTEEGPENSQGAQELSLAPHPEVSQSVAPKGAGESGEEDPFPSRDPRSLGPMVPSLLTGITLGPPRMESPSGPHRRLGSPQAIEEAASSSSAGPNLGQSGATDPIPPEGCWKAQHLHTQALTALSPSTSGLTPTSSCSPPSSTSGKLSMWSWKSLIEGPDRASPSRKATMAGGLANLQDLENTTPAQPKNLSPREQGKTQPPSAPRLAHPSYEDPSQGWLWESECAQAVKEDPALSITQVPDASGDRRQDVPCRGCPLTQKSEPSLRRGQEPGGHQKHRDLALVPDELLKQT
The gist of the method:
as §1

In test [3] the target is T3, PDZ protein (GST-PDZ fusion) (Homo sapiens, UniProt Q96JH8).
T3 construct: made in house; host or cells: E. coli (DH5alpha, BL21 or JM109)
T3 sequence (Q96JH8 1-1075): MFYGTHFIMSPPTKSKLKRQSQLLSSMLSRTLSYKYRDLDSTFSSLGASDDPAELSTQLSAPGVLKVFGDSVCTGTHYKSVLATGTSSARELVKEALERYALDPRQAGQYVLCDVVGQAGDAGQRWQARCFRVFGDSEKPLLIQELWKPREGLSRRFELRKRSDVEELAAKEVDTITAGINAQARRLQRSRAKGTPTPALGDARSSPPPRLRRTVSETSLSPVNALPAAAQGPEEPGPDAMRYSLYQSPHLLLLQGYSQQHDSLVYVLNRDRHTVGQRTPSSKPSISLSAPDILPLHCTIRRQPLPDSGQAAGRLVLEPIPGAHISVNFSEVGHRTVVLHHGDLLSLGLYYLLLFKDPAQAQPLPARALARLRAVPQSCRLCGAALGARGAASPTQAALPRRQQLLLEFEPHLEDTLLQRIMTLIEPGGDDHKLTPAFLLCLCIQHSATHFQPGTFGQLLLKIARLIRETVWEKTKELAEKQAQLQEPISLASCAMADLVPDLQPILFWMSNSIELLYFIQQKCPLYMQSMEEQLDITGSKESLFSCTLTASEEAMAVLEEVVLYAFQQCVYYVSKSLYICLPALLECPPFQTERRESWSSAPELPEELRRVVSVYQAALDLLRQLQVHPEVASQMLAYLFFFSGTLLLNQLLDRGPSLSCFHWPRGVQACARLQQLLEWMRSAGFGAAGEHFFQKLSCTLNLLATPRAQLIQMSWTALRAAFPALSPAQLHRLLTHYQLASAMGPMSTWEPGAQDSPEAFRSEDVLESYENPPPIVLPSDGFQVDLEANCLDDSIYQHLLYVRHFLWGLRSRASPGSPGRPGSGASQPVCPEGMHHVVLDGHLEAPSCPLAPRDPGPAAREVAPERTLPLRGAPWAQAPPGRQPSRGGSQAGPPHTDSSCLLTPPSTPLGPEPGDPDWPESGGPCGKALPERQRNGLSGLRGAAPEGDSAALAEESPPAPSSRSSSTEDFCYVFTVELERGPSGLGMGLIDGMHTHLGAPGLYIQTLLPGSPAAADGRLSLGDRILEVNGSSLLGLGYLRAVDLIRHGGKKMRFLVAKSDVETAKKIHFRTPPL
The conditions noted are these: PDZ FLJ 10324, PDZ Domain 1. In a few lines:
as §1

Setting [4] is: PDZ KIAA807, PDZ Domain not given.

Ends that are not written are not given here. * marks the point of attachment. Biotin = O=C1N[C@H]2[C@H](CS[C@H]2CCCCC(=O)*)N1

On to `CC[C@H](C)[C@H](NC(=O)[C@H](CCC(N)=O)NC(=O)[C@@H](NC(=O)[C@H](Cc1c[nH]cn1)NC(=O)[C@H](CCC(N)=O)NC(=O)[C@H](CC(=O)O)NC(=O)[C@H](CCC(=O)O)NC(=O)[C@H](CC(=O)O)NC(=O)[C@H](Cc1ccccc1)NC(=O)[C@@H]1CCCN1C(=O)[C@H](CCC(=O)O)NC(=O)[C@H](CC(N)=O)NC(=O)[C@H](CCC(=O)O)NC(=O)[C@@H]1CCCN1C(=O)[C@H](CC(=O)O)NC(=O)[C@H](CO)NC(=O)[C@H](CC(=O)O)NC(=O)CCCC[C@@H]1SC[C@@H]2NC(=O)N[C@@H]21)[C@@H](C)O)C(=O)N[C@H](C(=O)N[C@@H](CCCCN)C(=O)N[C@H](C(=O)O)C(C)C)[C@@H](C)O` [PTEN], for which the Classification in test [1] (PDZ Mint 1, PDZ Domain 1, 2) is recorded as 1 (A450 nm 0-1); in test [1] (PDZ Mint 1, PDZ Domain 2), 1 (A450 nm 0-1); in test [2] (PDZ KIAA0807(S), PDZ Domain 1), 5 (A450 nm of 4 more than 2× repeated); in test [2] (setting [4]), 5 (A450 nm of 4 more than 2× repeated); in test [3] it was 1 (A450 nm 0-1).

With “KTMPAAMFRLLTGQETPLYI (Biotin-KTMPAAMFRLLTGQETPLYI) [MINT-2]”, the Classification was 2 (A450 nm 1-2) in test [1] (PDZ Mint 1, PDZ Domain 1); 5 (A450 nm of 4 more than 2× repeated) in test [1] (PDZ Mint 1, PDZ Domain 1, 2); 1 (A450 nm 0-1) in test [1] (PDZ Mint 1, PDZ Domain 2); 4 (A450 nm 3-4) in test [2] (PDZ KIAA0807(S), PDZ Domain 1); 3 (A450 nm 2-3) in test [2] (setting [4]); 4 (A450 nm 3-4) in test [3].

Take “A2AA_HUMAN (modified) (Biotin-HDFRRAFKKILARGDRKRIV; not fully specified)”: the Classification is reported as 1 (A450 nm 0-1) in test [1] (PDZ Mint 1, PDZ Domain 1); 1 (A450 nm 0-1) in test [2] (PDZ KIAA0807(S), PDZ Domain 1); 1 (A450 nm 0-1) in test [3].

On to “ELLQFCRTPNPALKNGQYWV (Biotin-ELLQFCRTPNPALKNGQYWV)”, for which the Classification in test [1] (PDZ Mint 1, PDZ Domain 1) is on record as 2 (A450 nm 1-2); in test [1] (PDZ Mint 1, PDZ Domain 1, 2) it was 5 (A450 nm of 4 more than 2× repeated); in test [1] (PDZ Mint 1, PDZ Domain 2) it was 5 (A450 nm of 4 more than 2× repeated); in test [2] (PDZ KIAA807), 1 (A450 nm 0-1); in test [2] (PDZ KIAA0807(S), PDZ Domain 1), 1 (A450 nm 0-1); in test [3] it was 5 (A450 nm of 4 more than 2× repeated).

These data come from patent publication US20050282743A1, “Molecular interactions in cells” (Arbor Vita Corporation, priority 2001, published 2005).
